Measured values taken from US20240343818A1, “Antibodies Having Humanized Framework Regions” (priority 2021, published 2024).
Numbering of substitutions follows the chain as printed.

B1: VH4/VL4 antibody (antibody, V domains shown)
VH: QVQLVQSGAEVKKPGASVKVSCKASGYTFTDYYITWVRQAPGQGLEWMGWIYPGSGNTKYNEKFKGRVTITVDTSASTAYMELSSLRSEDTAVYYCANYGNYWFAYWGQGTLVTVSS
VL: DIVLTQSPDSLAVSLGERATINCKASQSVDFDGDSYMNWYQQKPGQPPKLLIYAASNRESGVPDRFSGSGSGTDFTLTISSLQAEDVAVYYCQQSNEDPWTFGGGTKVEIK
B2: H1/L4 (conjugate)
VH: QVQLQQSGPEVVKPGASVKVSCKASGYTFTDYYMTWVRQKPGQGLEWMGWIYPGSGNTKYNQKFKGRVTITVDTSSSTAFMELSSLTSEDTAVYFCANYGNYWFAYWGQGTQVTVSA
VL: B1 VL
B3: H4/L2 (conjugate)
VH: B1 VH
VL: B1 VL with L4M, D9A, N22S, A25S, M37L, N57T, D64A, A84E, V89T
B4: H4/L4 (conjugate)
VH: B1 VH
VL: B1 VL

Tests used:
L-82 xenograft = L-82 xenograft with CD30 ADCs; type: in vivo, mice
Description: (§1) Female NOD/SCID mice were used (8 mice/group) for the study. Animals were inoculated subcutaneously in the flank with 10 million cells in 50% PBS/50% Matrigel. When tumors reached an average volume of 100 mm^3, all animals were treated (Day 0) with a single 10 mg/kg intravenous dose of human IgG. Then, on Day 1, animals were treated with vehicle alone, with unconjugated antibody (3 mg/kg), or with an ADC at 1.5 or 3 mg/kg. The animals were monitored twice weekly for body weight and tumor size. Animals were euthanized when tumors reached 2000 mm^3. ADCs were highly efficacious in this study.

Karpas 299 xenograft = Karpas 299 xenograft with CD30 ADCs; type: in vivo, mice
Description: as §1, with “CB17/SCID” for “NOD/SCID”, “(6” for “(8”, “5” for “10”, “PBS.” for “50% PBS/50% Matrigel.”, “214” for “100”, “mm^3,” for “mm^3, all animals were treated (Day 0) with a single 10 mg/kg intravenous dose of human IgG. Then, on Day 1,”

[1] = Melting temperature by differential scanning fluorimetry; type: physicochemical
[2] = Forced stability of ADCs, high-molecular weight species by size-exclusion chromatography; type: physicochemical; conditions: for HWM pH 5.5, 3 d 45° C.: pH 5.5, 3 d at 45° C.; for HWM pH 5.5, 3 d −80° C.: pH 5.5, 3 d at −80° C.; for HWM pH 7.2, 3 d 45° C.: pH 7.2, 3 d at 45° C.; for HWM pH 7.2, 3 d −80° C.: pH 7.2, 3 d at −80° C.
Description: ADCs were conjugated at the antibody heavy chain C-terminus to a noncleavable linker bearing a maytansine payload for a DAR of ˜1.9. Samples were placed in buffer at the designated pH and temperature for 3 days, then analyzed by size-exclusion chromatography. HMW, high-molecular weight species.

[3] = single intravenous dose, ADC 1.5 or 3 mg/kg, unconjugated antibody 3 mg/kg
[4] = ADC (heavy chain C-terminus, noncleavable maytansine linker-payload, DAR ~1.9)

Molecule	complete responses (L-82 xenograft; L-82 xenograft, NOD/SCID mice, single intravenous dose 3 mg/kg (equal dosing))	complete responses (Karpas 299 xenograft; Karpas 299 xenograft, CB17/SCID mice, 6 mice/group, single intravenous dose 3 mg/kg (equal dosing))	efficacy in L-82 xenograft (L-82 xenograft; [3])	efficacy in Karpas 299 xenograft (Karpas 299 xenograft; [3])	Fab Tm [1, 4]	Fab Tm ([1]; Antibody)	HWM pH 5.5, 3 d 45° C. [2]	HWM pH 5.5, 3 d −80° C. [2]	HWM pH 7.2, 3 d 45° C. [2]	HWM pH 7.2, 3 d −80° C. [2]
Adcetris: anti-CD30 ADC used as comparator in the xenograft studies [reference compound]	8 out of 8 mice/group	6/6								
B1			minimal activity	minimal activity						
B2					80 °C	81.17 °C	10.05%	1.66%	16.42%	2.90%
B3					73 °C	75.54 °C	6.18%	1.24%	30.38%	2.37%
B4					82 °C	80.43 °C	7.70%	1.66%	23.28%	3.14%
